Reference: patent publication US20120301469A1 (Ablynx, published 2012)
Changes are numbered by the printed parent chain.

B1: Nanobody 1A6 (VHH)
VHH: EVQLVESGGGLVQAGGSLRLSCAASGRTFSSYAMGWFRQAPGKEREFVAAIWWSGGSTYYADSVKGRFTMSRDNAKNTVYLEMNNLKPEDTAVYYCAADTDSSNSGSYLYTWAYDYWGQGTQVTVSS
notes: also called PMP1A6; PRSV1A6
B2: Nanobody 19C4 (VHH)
VHH: EVQLVESGGGLVQAGGSLRLSCAASGRSFSNYVLGWFRQAPGKEREFVAAISFRGDSAIGAPSVEGRFTISRDNAKNTGYLQMNSLVPDDTAVYYCGAGTPLNPGAYIYDWSYDYWGRGTQVTVSS
notes: also called PMP19C4; PRSV19C4
B3: Nanobody 1E4 (VHH)
VHH: EVQLVESGGGLVQAGGSLRLSCEASGRTFSSYGMGWFRQAPGKEREFVAAVSRLSGPRTVYADSVKGRFTISRDNAENTVYLQMNSLKPEDTAVYTCAAELTNRNPGAYYYTWAYDYWGQGTQVTVSS
notes: also called PMP1E4; PRSV1E4
B4: Nanobody 20B2 (VHH)
VHH: B3 VHH with G33D, S52T, L54W, P57A, T59G, Y81H, E100D, L101S, P106S, Y109V
notes: also called PMP20B2; PR5V20B2
B5: Nanobody 20C1 (VHH)
VHH: EVQLVESGGGLVQAGGSLRLSCAASGRTFSSFAMGWFRQAPGKEREFVAAISWSGGSTYYADSVKGRFTISGDNAKNTMYLQMNSLKPEDTAVYYCAADSEILNSGAYYYPWAYVYWGQGTQVTVSS
notes: also called PMP20C1; PRSV20C1
B6: Nanobody 1G8 (VHH)
VHH: EVQLVESGGGSVQAGGSLRLSCAASGGSFNRFGMGWFRRAPGKERDFVAAINLSGDTTYYVDSVQGRFTISRDNANNIMYLQMNLLKPEDTADYYCAADPDPITAWKQSGAGMDYWGKGTQVTVSS
notes: also called PMP1G8; PRSV1G8
B7: Nanobody NC41 (VHH)
VHH: EVQLVESGGGLVQAGGSLSISCAASGGSLSNYVLGWFRQAPGKEREFVAAINWRGDITIGPPNVEGRFTISRDNAKNTGYLQMNSLAPDDTAVYYCGAGTPLNPGAYIYDWSYDYWGRGTQVTVSS
B8: Nanobody 8A1 (VHH)
VHH: EVQLVESGGGLVQPGGSLRVSCAASGFTFNDYIMGWFRQAPGKERMFIAAISGTGTIKYYGDLVRGRFTISRDNAKNTVYLRIDSLNPEDTAVYYCAARQDYGLGYRESHEYDYWGQGTQVTVSS
notes: also called PMP8A1; PRSV8A1
B9: Nanobody 8B10 (VHH)
VHH: EVQLVESGGGLVQAGASLRLSCAASGLAFSRYAMGWFRQAPGKERESVAAISSSGDNIYYADSVKGQFTMSRDNAKSSVYLQMINLKPEDTAVYYCAATSPLFVASDYFEASRYGYWGQGTQVTVSS
notes: also called PMP8B10; PRSV8B10
B10: Nanobody 13B4 (VHH)
VHH: EVQLVESGGGLVQAGGSLRLSCAASGFTFDDYAIGWFRQAPGKEREAVSCISSSDGSTYYADSVKGRFTISSDNAKNMVYLQMNSLKPEDTAVYYCAADLLRTAVGCLDYRGTYYPRTTMDYRGKGTLVTVSS
notes: also called PMP13B4; PRSV13B4
B11: Nanobody 13A1 (VHH)
VHH: EVQLVESGGGLVQPGGSLRLSCAASGLTLDYYALGWFRQAPGKEREGVSCISSADHSTTYADSVKGRFTISWDNAKNTVYLQMNSLKPEDTAVYYCAADPALGCYSGNYYPRYDYWGQGTQVTVSS
notes: also called PMP13A1; PRSV13A1
B12: Nanobody 19E2 (VHH)
VHH: B11 VHH with A54S, S57T, A61T, V79L, N108S, Y115F
notes: also called PMP19E2; PRSV19E2
B13: Nanobody 13C1 (VHH)
VHH: EVQLVESGGGLVQPGGSLRLSCEASGFTWDYYVIGWFRQAPGKEREGLSCISSDGSTTYADSVKGRFTISRDNAKNTVYLQMNSLEPEDTAVYYCATDPALGCYSGSYYPRYDYWGQGTQVTVSS
notes: also called PMP13C1; PRSV13C1
B14: Nanobody 13D1 (VHH)
VHH: EVQLVESGGGLVQPGGSLRLSCATSGFTEDYYVIGWFRQAPGKEREGVSCMSSSGDSTTYADSVKGRFTISRDNAKNMVYLQMTSLKPEDTAVYYCAADFALGCYSGSYYPRYDYWGQGTQVTVSS
notes: also called PMP13D1; PRSV13D1
B15: Nanobody 13E12 (VHH)
VHH: EVQLVESGGGLVQAGGSLRLSCAASGRTFSRYIMGWFRQAPGKEREFVGAISRSGDITSFADFVKGRFTMSRDNAKNTLYLQMNSLEPEDTAVYSCAANSDTYYIYSDIVVPERYDYWGQGTQVTVSS
notes: also called PMP13E12; PRSV13E12
B16: Nanobody 23E5 (VHH)
VHH: EVQLMESGGGLVQAGGSLRLSCAASGGTFSSYAMGWFRQAPGEERDFVAAIGWSGNSPYYAQFVKGRFTISRDNAKNTVHLQMNSLKPEDTAVYYCAAAHNTMGSDYEGYDYWGQGTQVTVSS
notes: also called PMP23E5; PRSV23E5
B17: Nanobody 1B2 (VHH)
VHH: EVQLVESGGGLVQAGGSLRLSCAASGPTFSADTMGWFRQAPGKEREFVATIPWSGGIAYYSDSVKGRFTMSRDNAKNTVDLQMNSLKPEDTALYYCAGSSRIYIYSDSLSERSYDYWGQGTQVTVSS
notes: c-myc/His6-tagged; also called PMP1B2; PRSV1B2
B18: Nanobody 1A2 (VHH)
VHH: EVQLVESGGGLVQAGGSLRLSCAASERTFSYYAMGWFRQAPGKEREFVATISRSGEWIYYKDAMKGRFTISRDNANNAVYLQMNSLQPEDTAIYYCAADSLGGFRSASDYYNTNTYAYWGQGTQVTVSS
notes: also called PMP1A2; PRSV1A2

Experiments:
[1] = target: T1, protein F of hRSV strain B-1 (on RSV B-1-infected Hep2 cells and on virus) (human respiratory syncytial virus, …, UniProt P13843 26-574); test: cell-based or functional assay
[2] = target: protein F of hRSV strain Long, on virus (inactivated hRSV Long, Hytest #8RSV79; RSV Long LM-2, ATCC VR-26) (human respiratory syncytial virus, …, UniProt P12568 26-574); test: cell-based or functional assay
[3] = target: T1, protein F of hRSV strain B-1 (on RSV …); test: cell-based or functional assay; remark: listed apart in the source
[4] = target: T2, hRSV FTM-NN (membrane anchorless form of the Long fusion protein, 70 kDa) (human respiratory syncytial virus, …, UniProt P12568 26-524); test: ELISA on immobilized FTM-NN, periplasmic extract 1:10
T2 construct: also called FTM-NN (Long); hRSV FTM-protein

[5] = target: T1, protein F of hRSV strain B-1 (on RSV …); test: cell ELISA on RSV B-1-infected Hep2 cells, periplasmic extract 1:50
[6] = target: T1, protein F of hRSV strain B-1 (on RSV …); test: cell ELISA on RSV B-1-infected Hep2 cells, periplasmic extract 1:200
[7] = target: T2, hRSV FTM-NN (membrane anchorless form …); test: competition ELISA on FTM-NN, competitor Synagis Mab, purified Nanobody
[8] = target: T2, hRSV FTM-NN (membrane anchorless form …); test: SPR (Biacore), FTM-NN amine-coupled on CM5 chip, 1:1 Langmuir fit
[9] = target: T2, hRSV FTM-NN (membrane anchorless form …); test: competition ELISA on FTM-NN, competitor 101F Fab, purified Nanobody

| Binder | micro-neutralization of RSV B-1 [1] [µM] | Neutralization Long IC50 [2] [nM] | Neutralization B-1 IC50 [3] [nM] | Binding Long 1:10 PE (Fold blanc) [4] [fold blanc] | Binding Hep2-B-1 (% control) 1:50 PE [5] [% control] | Binding Hep2-B-1 (% control) 1:200 PE [6] [% control] | IC50 [7] [nM] | Kd [8] [nM] | koff [8] [s⁻¹] | kon [8] [M⁻¹ s⁻¹] | IC50 [9] [nM] |
| --- | --- | --- | --- | --- | --- | --- | --- | --- | --- | --- | --- |
| B1 | > 10 | 4500 | > 10000 | 4.2 | 57 | 39 |  |  |  |  |  |
| B2 | > 10 | 332 | > 10000 | 2.5 | 72 | 50 | 209 |  |  |  |  |
| B3 | > 10 |  | > 10000 |  | 55 | 55 |  |  |  |  |  |
| B4 | > 10 | 1760 | > 10000 | 3 | 32 | 32 |  |  |  |  |  |
| B5 | > 10 | 5290 | > 10000 | 2.7 | 37 | 35 |  |  |  |  |  |
| B6 | > 10 | 10000 | > 10000 | 3.7 | 73 | 43 |  |  |  |  |  |
| B7 | > 10 | 221 |  |  |  |  | 416 | 8.1 | 0.0067 | 820000 |  |
| B8 |  |  | 12200 | 3.7 | 98 | 92 |  |  |  |  | 2.81 |
| B9 |  |  | > 15000 |  | 94 | 84 |  |  |  |  |  |
| B10 |  |  | > 15000 | 2.7 | 75 | 56 |  |  |  |  | 3.69 |
| B11 |  |  | 6160 | 2.9 | 84 | 65 |  | 0.61 | 0.00035 | 570000 | 4.23 |
| B12 |  |  | 4550 | 3.5 | 87 | 58 |  | 0.52 | 0.00024 | 460000 | 2.93 |
| B13 |  |  | 11400 | 3 | 104 | 86 |  |  |  |  | 3.83 |
| B14 |  |  | 5850 | 3.1 | 93 | 75 |  |  |  |  | 3.37 |
| B15 |  |  | 12300 | 3.7 | 97 | 75 |  | 1.5 | 0.00016 | 110000 | 3.52 |
| B16 |  |  | > 15000 | 3.4 | 103 | 82 |  | 7.9 | 0.0013 | 160000 | 1.73 |
| B17 |  |  | 7380 | 3.8 | 88 | 85 |  | 0.44 | 0.00017 | 380000 | 2.91 |
| B18 |  |  | 13700 | 4 | 86 | 66 |  |  |  |  | 2.9 |
